B1: CB6H-XG83L (antibody, V domains shown)
VH: EVQLVESGGGLVQPGGSLRLSCAASGFTVSSNYMSWVRQAPGKGLEWVSVIYSGGSTFYADSVKGRFTISRDNSMNTLFLQMNSLRAEDTAVYYCARVLPMYGDYLDYWGQGTLVTVSS
VL: QSVLTQPPSVSGAPGQRVTISCTGSSSNIGAGYDVHWYQQLPGTAPKLLIYGDSNRPSGVPDRFSGSKSGTSASLAITGLQAEDEADFYCQSYDSSLSTSIFGGGTKLTVL
B2: CB6 (antibody, V domains shown)
VH: EVQLVESGGGLVQPGGSLRLSCAASGFTVSSNYMSWVRQAPGKGLEWVSVIYSGGSTFYADSVKGRFTISRDNSMNTLFLQMNSLRAEDTAVYYCARVLPMYGDYLDYWGQGTLVTVSS
VL: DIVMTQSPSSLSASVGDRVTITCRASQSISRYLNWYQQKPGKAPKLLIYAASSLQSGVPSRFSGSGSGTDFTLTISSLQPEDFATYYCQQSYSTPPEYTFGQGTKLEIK
B3: CC12.3 (antibody, V domains shown)
VH: QVQLVESGGGLIQPGGSLRLSCAASGFTVSSNYMSWVRQAPGKGLEWVSVIYSGGSTFYADSVKGRFTISRDNSKSTLYLQMNSLRVEDTAVYYCARDFGDFYFDYWGQGTLVTVSS
VL: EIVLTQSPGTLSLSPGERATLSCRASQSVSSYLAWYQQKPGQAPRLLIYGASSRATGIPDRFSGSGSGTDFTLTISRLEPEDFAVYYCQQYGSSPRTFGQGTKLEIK
B4: REGN10987 (antibody, V domains shown)
VH: QVQLVESGGGVVQPGRSLRLSCAASGFTFSNYAMYWVRQAPGKGLEWVAVISYDGSNKYYADSVKGRFTISRDNSKNTLYLQMNSLRTEDTAVYYCASGSDYGDYLLVYWGQGTLVTVSS
VL: QSALTQPASVSGSPGQSITISCTGTSSDVGGYNYVSWYQQHPGKAPKLMIYDVSKRPSGVSNRFSGSKSGNTASLTISGLQSEDEADYYCNSLTSISTWVFGGGTKLTVL
B5: 4A8 (antibody, V domains shown)
VH: EVQLVESGAEVKKPGASVKVSCKVSGYTLTELSMHWVRQAPGKGLEWMGGFDPEDGETMYAQKFQGRVTMTEDTSTDTAYMELSSLRSEDTAVYYCATSTAVAGTPDLFDYYYGMDVWGQGTTVTVSS
VL: EIVMTQSPLSSPVTLGQPASISCRSSQSLVHSDGNTYLSWLQQRPGQPPRLLIYKISNRFSGVPDRFSGSGAGTDFTLKISRVEAEDVGVYYCTQATQFPYTFGQGTKVDIK
B6: LCA60 (antibody, V domains shown)
VH: EVQLLESGGGLVKPGGSLRLSCEASGLTFSNVWMSWVRQAPGKGLEWVGRIKRKSEGATTDYGAPVKGRFTLSRDDSKNTVYLQMNSLKIDDTAVYYCSTLTRGGDVWSSSYYFDYWGQGALVTVSS
VL: QSALTQPASVSGSPGQSITISCTGTSSDVGTYDLVSWYQQHPGKSPKLMIYADIKRPSGVSHRFSGSKSGNTASLTISGLQSADEADYYCCLYAGSSTSVIFGGGTKVT
notes: also called MERS nAb LCA60
B7: EY6A (antibody, V domains shown)
VH: EVQLVESGGGVVQPGRSLRLSCAASAFTFSSYDMHWVRQAPGKGLEWVAVISYDGSNKYYADSVKGRFTISRDNSKNTLYLQMNSLRAEDTAVYYCAKDGGKLWVYYFDYWGQGTLVTVSS
VL: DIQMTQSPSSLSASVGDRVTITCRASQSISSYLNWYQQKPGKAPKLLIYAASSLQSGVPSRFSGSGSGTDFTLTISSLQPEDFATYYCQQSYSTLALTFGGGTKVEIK
B8: B38 (antibody, V domains shown)
VH: EVQLVESGGGLVQPGGSLRLSCAASGFIVSSNYMSWVRQAPGKGLEWVSVIYSGGSTYYADSVKGRFTISRHNSKNTLYLQMNSLRAEDTAVYYCAREAYGMDVWGQGTTVTVSS
VL: DIVMTQSPSFLSASVGDRVTITCRASQGISSYLAWYQQKPGKAPKLLIYAASTLQSGVPSRFSGSGSGTEFTLTISSLQPEDFATYYCQQLNSYPPYTFGQGTKLEIK
B9: C105 (antibody, V domains shown)
VH: QVQLVESGGGLIQPGGSLRLSCAASGFTVSSNYMSWVRQAPGKGLEWVSVIYSGGSTYYADSVKGRFTISRDNSKNTLYLQMNSLRAEDTAVYYCARGEGWELPYDYWGQGTLVTVSS
VL: QSALTQPPSASGSPGQSVTISCTGTSSDVGGYKYVSWYQQHPGKAPKLMIYEVSKRPSGVPDRFSGSKSGNTASLTVSGLQAEDEADYYCSSYEGSNNFVVFGGGTKLTVL
B10: REGN10933 (antibody, V domains shown)
VH: QVQLVESGGGLVKPGGSLRLSCAASGFTFSDYYMSWIRQAPGKGLEWVSYITYSGSTIYYADSVKGRFTISRDNAKSSLYLQMNSLRAEDTAVYYCARDRGTTMVPFDYWGQGTLVTVSS
VL: DIQMTQSPSSLSASVGDRVTITCQASQDITNYLNWYQQKPGKAPKLLIYAASNLETGVPSRFSGSGSGTDFTFTISGLQPEDIATYYCQQYDNLPLTFGGGTKVEIK
B11: 2-4 (antibody, V domains shown)
VH: QVQLVQSGAEVKKPGASVKVSCKASGYTFTGYYMHWVRQAPGQGLEWMGWINPNSGGTNYTQMFQGRVTMTRDTSISTAYMEVSRLRSDDTAVYYCARDRSWAVVYYYMDVWGKGTTVTVSS
VL: QSALTQPPSASGSPGQSVTISCTGTSSDVGGYNYVSWYQQHPGKAPKLMIYEVSKRPSGVPDRFSGSKSGNTASLTVSGLQAEDEADYYCSSYAGSNNLVFGGGTKLTVL

One test concerns the target T1, SARS-CoV-2 RBD protein (321–591) (SARS-CoV-2, Wuhan-Hu-1 (MN908947), UniProt P0DTC2). As to the kind of experiment: SPR. Conditions: both partners purified.
For orientation: Kd means the concentration at which binding is half-saturated. A low value points to higher affinity. B1 came in with a Kd of 0.58 nM.
In turn, B2 gave a Kd of 43.8 nM.

A further test addresses T1, SARS-CoV-2 RBD protein (321–591). Put plainly: ELISA. Conditions: one partner purified. In general terms: An ELISA detects its analyte on a solid surface through an enzyme-linked reagent.
For the molecule B3, the binding result is on record as “binds”.
Still for that read-out and setting: the entry for B4 is “binds”; for B5 it is “no binding”.
On the same count and under the same terms, the result for B6 reads “no binding”; that for B7, “binds”.
Same read-out and setting: the entry for B8 is “binds”; for B9 it is “binds”; for B10 it is “binds”.
Regarding B11, the binding result is “binds”.

For a further test the target is unchanged. Put plainly: cell-based or functional assay.
Details: not given
On to B1, for which the “IC50 of neutralisation of authentic SARS-CoV-2 on Vero E6 cells (CPE assay)” value is 1.1 µg/mL.

The values above are taken from PMC8442604 (Frontiers in Immunology, 2021).
